Here are results for two molecules from PMC11035591, “Structural insights into the transporting and catalyzing mechanism of DltB in LTA D-alanylation” (Nature Communications, 2024).

As usually defined, the stoichiometry N is a count of units in the complex or per binding partner.

In assay [1] the target is T1, Streptococcus thermophilus DltB (Streptococcus thermophilus), Q5M4V4.
T1 chain: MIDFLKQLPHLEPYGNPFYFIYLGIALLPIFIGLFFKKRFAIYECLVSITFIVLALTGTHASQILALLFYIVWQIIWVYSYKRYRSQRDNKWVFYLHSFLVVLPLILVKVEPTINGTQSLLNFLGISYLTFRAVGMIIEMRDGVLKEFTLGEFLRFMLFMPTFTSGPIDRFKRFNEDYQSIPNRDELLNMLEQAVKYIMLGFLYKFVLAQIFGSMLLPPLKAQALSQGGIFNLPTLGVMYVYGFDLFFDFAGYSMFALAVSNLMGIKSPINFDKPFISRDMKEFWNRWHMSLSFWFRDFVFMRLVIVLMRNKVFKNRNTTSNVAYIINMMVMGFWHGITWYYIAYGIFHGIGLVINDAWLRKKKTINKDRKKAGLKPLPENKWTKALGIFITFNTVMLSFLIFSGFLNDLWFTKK
Description: cryo-EM structure; DltB tetramer (10 mg/mL) incubated with the inhibitor m-AMSA (1:3 ratio) for 30 min; 3.23 Å. To be noted: remark: other sources report otherwise.

Assay [2] has as its target T1, Streptococcus thermophilus DltB …. Description: cryo-EM structure; apo DltB tetramer, about 10 mg/mL in β-DDM; 3.42 Å. The following applies: remark: other sources report otherwise.
Assay [3] shares this target. The assay is described as follows: cryo-EM structure; DltB tetramer (10 mg/mL) incubated with purified DltC (1:1 ratio) for 30 min; 3.50 Å. The following applies: remark: other sources report otherwise.
For assay [4] the target is unchanged. Description: SEC; membrane with overexpressed DltB (wild type or mutant) mildly solubilised with 0.25% β-DDM, Superdex 200; fractions analysed by western blot (anti-His). To be noted: remark: other sources report otherwise.
The target in assay [5] is T2, Streptococcus thermophilus DltB (Streptococcus thermophilus, UniProt Q5M4V4 1-415).
T2 construct: the entire chain from Met1 to Lys415 was modelled in the cryo-EM maps ('intact DltB protein'); Homo-tetramer (dimer of dimers) by SEC, cross-linking and cryo-EM; purification also gave oligomer, dimer and monomer fractions; also called WT DltB; DltB tetramer; source: E. coli C41(DE3); purified (Triton X-100 solubilisation, Ni-NTA, Superdex 200 in 0.03% β-DDM); also unpurified in whole cells, on …
T2 sequence (looked up): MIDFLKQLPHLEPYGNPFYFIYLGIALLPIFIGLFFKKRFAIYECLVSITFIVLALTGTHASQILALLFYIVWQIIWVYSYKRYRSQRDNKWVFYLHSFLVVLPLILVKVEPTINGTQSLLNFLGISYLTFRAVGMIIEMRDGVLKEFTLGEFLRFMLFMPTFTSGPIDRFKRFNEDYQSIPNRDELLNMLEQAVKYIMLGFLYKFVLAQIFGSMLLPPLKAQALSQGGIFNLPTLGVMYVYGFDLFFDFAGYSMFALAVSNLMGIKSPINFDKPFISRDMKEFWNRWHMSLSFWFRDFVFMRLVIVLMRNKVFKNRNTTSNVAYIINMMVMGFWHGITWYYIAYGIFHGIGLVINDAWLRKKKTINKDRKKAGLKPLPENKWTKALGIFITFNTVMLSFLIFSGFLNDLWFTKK
Description: cryo-EM structure; DltB tetramer (10 mg/mL) incubated with purified DltC (1:1 ratio) for 30 min; 3.50 Å. The following applies: both partners purified.

B1: Streptococcus thermophilus DltB, Q5M4V4 1-415 (enzyme)
chain: MIDFLKQLPHLEPYGNPFYFIYLGIALLPIFIGLFFKKRFAIYECLVSITFIVLALTGTHASQILALLFYIVWQIIWVYSYKRYRSQRDNKWVFYLHSFLVVLPLILVKVEPTINGTQSLLNFLGISYLTFRAVGMIIEMRDGVLKEFTLGEFLRFMLFMPTFTSGPIDRFKRFNEDYQSIPNRDELLNMLEQAVKYIMLGFLYKFVLAQIFGSMLLPPLKAQALSQGGIFNLPTLGVMYVYGFDLFFDFAGYSMFALAVSNLMGIKSPINFDKPFISRDMKEFWNRWHMSLSFWFRDFVFMRLVIVLMRNKVFKNRNTTSNVAYIINMMVMGFWHGITWYYIAYGIFHGIGLVINDAWLRKKKTINKDRKKAGLKPLPENKWTKALGIFITFNTVMLSFLIFSGFLNDLWFTKK
Turning to B1, the stoichiometry N in assay [1], in assay [2], in assay [3] and in assay [4] was 4 throughout.

B2: Streptococcus thermophilus DltC (natural protein)
chain: MDVKAEVIEIIDELFMEDVSDMMDEDLFDAGVLDSMGTVELIVELESRFDIRVPVSEFGRDDWNTANKIVEGVTELRNA
notes: DltC, D-alanyl carrier protein, Streptococcus thermophilus; Used without the 4'-phosphopantetheine (Ppant) modification on Ser35; Modified pET28a vector with a TEV cleavage site; also called DltC-ST; source: E. coli BL21(DE3), purified (Ni column, TEV cleavage, Resource Q)
As to B2, the binding result in assay [5] is recorded as “binds”.
